B1: Membrane-associated guanylate kinase, WW and PDZ domain-containing protein 3, residues 287 to 329; numbered along this chain, Q5TCQ9 (parent)
chain: MRDETLEPLPKNWEMAYTDTGMIYFIDHNTKTTTWLDPRLCKK

Variants of: B1
Assay: abundance fitness (aPCA) (normalised: wild type 0, dead -1); higher = more abundant; growth selection in yeast, the domain comes from the species named
Details: Homo sapiens

Abundance fitness of substitutions, site by site:
P38: H -0.806 | Y -1.17 | C -1.12 | M -0.83 | F -0.95 | D -0.854 | W -0.963 | T -0.897 | N -1.04 | E -1.02 | R -0.954 | A -0.899 | G -0.902 | K -0.994
T34: L -1.21 | M -0.62 | G -0.667 | C -0.64 | Y -0.982 | W -0.743 | K -0.719 | A -0.632 | R -0.71 | P -0.906 | I -1.02 | E -0.677 | N -0.661 | V -0.924 | S -0.106 | Q -0.28
T33: W -0.445 | L -0.496 | F -0.584 | P -0.684 | C -0.142 | Y -0.447 | V -0.298 | H -0.535 | I -0.519 | R -0.351 | K -0.388 | N -0.418 | S -0.187 | E -0.442 | G -0.551 | D -0.648 | Q -0.417 | M -0.315
K42: H -0.081 | G -0.014 | D 0.002 | A 0.018 | C -0.146 | E 0.056 | F -0.242
C41: V 0.02 | P 0.043 | A 0.058 | E 0.038 | T 0.01 | F -0.044 | H 0.051 | Y -0.005 | D -0.006 | R -0.021 | W 0.007 | S 0.034 | K -0.015 | Q 0.04 | I 0.059 | L -0.013 | G -0.004
L36: M -0.001 | V -0.019 | Q -0.03 | F -0.088 | D -0.183 | T -0.078 | G -0.144 | A -0.044 | C -0.099 | I -0.07 | Y -0.077
